In patent publication US11230581B2, “Peptides and combination of peptides for use in immunotherapy against ovarian cancer and other cancers” (Immatics Biotechnologies GmbH, priority 2015, dated 2022):

These substances were tested against HLA-A*02:01 (Homo sapiens, UniProt P04439, D140Y/D185E/D98H/E176V/E277Q/G131W/G231S/I119V/I121R/I166T/I218V/L300P/L318F/N151K/N90K/P208A/P217A/Q86G/Q94H/R138H/R169H/T345S) (assay: MHC binding assay (UV-ligand exchange, β2m ELISA, peptide exchange yield)). Conditions: binding of HLA-class I restricted peptides to HLA-A*02:01, UV-ligand exchange.
Procedure, shortened: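 Yield of stabilized complexes quantified via the β2m light chain in an ELISA (streptavidin capture, 100-fold diluted monomers, HRP anti-β2m 2 ug/ml at 37 °C, TMB, A450). The complexes come from UV-triggered replacement of a photocleavable ligand by the candidate peptide.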

Peptide exchange (MHC class I binding score, peptide exchange yield)	Substance
“+++” (≥50 = +++)	563 (WLLPYNGVTV; listed as Homo sapiens) [compound 563]
“+++” (≥50 = +++)	545 (LLADLLHNV; listed as Homo sapiens) [compound 545]
“++++” (≥75% = ++++)	602 (YLLEQIKLIEV; listed as Homo sapiens) [compound 602]
“+++” (≥50 = +++)	605 (KLYEAVPQL; listed as Homo sapiens) [compound 605]
“+++” (≥50 = +++)	609 (ALWKQLLEL; listed as Homo sapiens) [compound 609]
“+++” (≥50 = +++)	555 (YVLEGLKSV; listed as Homo sapiens) [compound 555]
“+++” (≥50 = +++)	506 (KLLGKVETA; listed as Homo sapiens) [compound 506]
“+++” (≥50 = +++)	635 (SLDSTLHAV; listed as Homo sapiens) [compound 635]
“+++” (≥50 = +++)	463 (SLVESHLSDQLTL; listed as Homo sapiens) [compound 463]
“+++” (≥50 = +++)	567 (SLLPLDDIVRV; listed as Homo sapiens) [compound 567]
“+++” (≥50 = +++)	546 (VMIAGKVAVV; listed as Homo sapiens) [compound 546]
“+++” (≥50 = +++)	557 (KLYDDMIRL; listed as Homo sapiens) [compound 557]
“+++” (≥50 = +++)	539 (ALFDAQAQV; listed as Homo sapiens) [compound 539]
“+++” (≥50 = +++)	492 (SLFDGFADGLGV; listed as Homo sapiens) [compound 492]
“+++” (≥50 = +++)	485 (NVPDSFNEV; listed as Homo sapiens) [compound 485]
“+++” (≥50 = +++)	551 (KLYESLLPFA; listed as Homo sapiens) [compound 551]
“+++” (≥50 = +++)	480 (ALLEDSCHYL; listed as Homo sapiens) [compound 480]
“+++” (≥50 = +++)	473 (AMATESILHFA; listed as Homo sapiens) [compound 473]
“+++” (≥50 = +++)	441 (ALLENPKMEL; listed as Homo sapiens) [compound 441]
“+++” (≥50 = +++)	476 (ALMERTGYSMV; listed as Homo sapiens) [compound 476]
“++” (≥20% = ++)	451 (LLLLDTVTMQV; listed as Homo sapiens) [compound 451]
“+++” (≥50 = +++)	613 (RLLPPGAVVAV; listed as Homo sapiens) [compound 613]

More lines, now with the values behind:

Substance	Peptide exchange (MHC class I binding score, peptide exchange yield)
183 (FGLDLVTEL; listed as Homo sapiens) [compound 183]	“+++” (≥50 = +++)
84 (VTFGEKLLGV; listed as Homo sapiens) [compound 84]	“++” (≥20% = ++)
39 (SVAPNLPAV; listed as Homo sapiens) [compound 39]	“+++” (≥50 = +++)
334 (TLTKVLVAL; listed as Homo sapiens) [compound 334]	“+++” (≥50 = +++)
373 (SLLEDKGLAEV; listed as Homo sapiens) [compound 373]	“++” (≥20% = ++)
313 (VLFDDELLMV; listed as Homo sapiens) [compound 313]	“+++” (≥50 = +++)
308 (SQYSGQLHEV; listed as Homo sapiens) [compound 308]	“+++” (≥50 = +++)
365 (YVIDQGETDVYV; listed as Homo sapiens) [compound 365]	“+++” (≥50 = +++)
162 (YQQAQVPSV; listed as Homo sapiens) [compound 162]	“+++” (≥50 = +++)
246 (LLWEVVSQL; listed as Homo sapiens) [compound 246]	“+++” (≥50 = +++)
176 (YLMEGSYNKVFL; listed as Homo sapiens) [compound 176]	“++” (≥20% = ++)
169 (NLPEYLPFV; listed as Homo sapiens) [compound 169]	“+++” (≥50 = +++)
62 (VLLDVSAGQLLM; listed as Homo sapiens) [compound 62]	“++++” (≥75% = ++++)
286 (YLFPGIPEL; listed as Homo sapiens) [compound 286]	“+++” (≥50 = +++)
436 (HLAEVSAEV; listed as Homo sapiens) [compound 436]	“+++” (≥50 = +++)
288 (NLINEINGV; listed as Homo sapiens) [compound 288]	“+++” (≥50 = +++)
316 (ILLERLWYV; listed as Homo sapiens) [compound 316]	“+++” (≥50 = +++)
154 (ALDDGTPAL; listed as Homo sapiens) [compound 154]	“++” (≥20% = ++)
168 (KILDADIQL; listed as Homo sapiens) [compound 168]	“++++” (≥75% = ++++)
180 (FQIDPHSGLVTV; listed as Homo sapiens) [compound 180]	“++” (≥20% = ++)
144 (YIMEPSIFNTL; listed as Homo sapiens) [compound 144]	“+++” (≥50 = +++)
121 (GVVDPRAISVL; listed as Homo sapiens) [compound 121]	“++” (≥20% = ++)

Substance	Peptide exchange (MHC class I binding score, peptide exchange yield)
114 (SLVGEPILQNV; listed as Homo sapiens) [compound 114]	“++” (≥20% = ++)
27 (ILADIVISA; listed as Homo sapiens) [compound 27]	“+++” (≥50 = +++)
328 (ALNDQVFEI; listed as Homo sapiens) [compound 328]	“+++” (≥50 = +++)
300 (ALLGQTFSL; listed as Homo sapiens) [compound 300]	“+++” (≥50 = +++)
312 (IISDLTIAL; listed as Homo sapiens) [compound 312]	“+++” (≥50 = +++)
349 (SLTEYLQNV; listed as Homo sapiens) [compound 349]	“++++” (≥75% = ++++)
236 (GLLEAKVSL; listed as Homo sapiens) [compound 236]	“+++” (≥50 = +++)
143 (LLLDITPEI; listed as Homo sapiens) [compound 143]	“++++” (≥75% = ++++)
60 (SLTIDGIYYV; listed as Homo sapiens) [compound 60]	“++++” (≥75% = ++++)
278 (QLLDVVLTI; listed as Homo sapiens) [compound 278]	“++” (≥20% = ++)
12 (SLWPDPMEV; listed as Homo sapiens) [compound 12]	“+++” (≥50 = +++)
75 (GLLEVMVNL; listed as Homo sapiens) [compound 75]	“+++” (≥50 = +++)
325 (FIMPATVADATAV; listed as Homo sapiens) [compound 325]	“+++” (≥50 = +++)
271 (LVYPLELYPA; listed as Homo sapiens) [compound 271]	“+++” (≥50 = +++)
354 (LILEGVDTV; listed as Homo sapiens) [compound 354]	“++” (≥20% = ++)
390 (ALFMKQIYL; listed as Homo sapiens) [compound 390]	“+++” (≥50 = +++)
33 (VLLSLLEKV; listed as Homo sapiens) [compound 33]	“++” (≥20% = ++)
190 (FLSSLTETI; listed as Homo sapiens) [compound 190]	“+++” (≥50 = +++)
149 (NLLELFVQL; listed as Homo sapiens) [compound 149]	“+++” (≥50 = +++)
102 (YLFESEGLVL; listed as Homo sapiens) [compound 102]	“+++” (≥50 = +++)
160 (FLFDEEIEQI; listed as Homo sapiens) [compound 160]	“+++” (≥50 = +++)
347 (SLFKHDPAAWEA; listed as Homo sapiens) [compound 347]	“++++” (≥75% = ++++)
